Laboratory results published in US20250277038A1.

What was measured:
[1] = target: human PD-L1 (Acro, Catalog Number: H5229) (human) (UniProt Q9NZQ7); test: BLI, Octet RED96e, antibody on AHC sensor, antigen 100 nM, 1:1 fit
[2] = target: monkey PD-L1 protein on CHOK1 cell (monkey (cyno)); test: FACS blocking assay: antibody titrated against Biotin-PD-1-mFc on CHOK1-cynoPD-L1 cells, SA488 detection
[3] = target: human PD-L1 protein on HEK293 cell (human) (UniProt Q9NZQ7); test: FACS blocking assay: antibody titrated against Biotin-PD-1-mFc on HEK293-hPD-L1 cells, SA488 detection
Sequence of human PD-L1 protein on HEK293 cell (human) (Q9NZQ7 19-290): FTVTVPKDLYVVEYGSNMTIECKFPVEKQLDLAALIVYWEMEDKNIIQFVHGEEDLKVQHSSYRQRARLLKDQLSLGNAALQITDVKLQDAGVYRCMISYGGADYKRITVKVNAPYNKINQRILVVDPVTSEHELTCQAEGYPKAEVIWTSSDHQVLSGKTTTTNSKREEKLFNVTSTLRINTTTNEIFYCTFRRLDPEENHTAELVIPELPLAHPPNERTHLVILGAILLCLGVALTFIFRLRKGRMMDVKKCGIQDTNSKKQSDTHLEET

Sequence of human PD-L1 (Acro, Catalog Number: H5229) (human) (Q9NZQ7 19-238 limits assumed): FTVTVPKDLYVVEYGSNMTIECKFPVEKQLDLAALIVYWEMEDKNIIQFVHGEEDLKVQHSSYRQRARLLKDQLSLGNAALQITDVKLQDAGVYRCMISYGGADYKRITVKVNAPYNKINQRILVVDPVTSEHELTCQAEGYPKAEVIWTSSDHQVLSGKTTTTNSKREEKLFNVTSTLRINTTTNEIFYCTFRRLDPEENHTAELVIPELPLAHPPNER

Kd [1]: 484 pM
koff [1]: 0.000311 s⁻¹
kon [1]: 644000 M⁻¹ s⁻¹
IC50 (read off the curve) [2]: 0.9 µg/mL
IC50 (read off the curve) [3]: 0.08 µg/mL
Substance: Atezolimumab (antibody)
